According to patent US20110318347A1:

Key:
[1] = biological target: human CXCR4 (human); experiment: competition vs [125I]-CXCL12; potency relative to monovalent 238D2
[2] = biological target: human CXCR4 (human); experiment: competition vs [125I]-CXCL12, membranes of HEK293T cells expressing CXCR4
[3] = biological target: human CXCR4 (human); experiment: competition vs [125I]-238D2 (3 nM), membranes of HEK293T cells expressing CXCR4; Table B-3 competition vs [125I]-238D2, up to 0.5 µM; bound only
[4] = biological target: human CXCR4 (human); experiment: competition vs [125I]-238D4 (3 nM), membranes of HEK293T cells expressing CXCR4; Table B-3 competition vs [125I]-238D4, up to 0.5 µM; bound only
[5] = biological target: human CXCR4 (human); experiment: competition vs [125I]-238D2 (3 nM), membranes of HEK293T cells expressing CXCR4; Table B-3 competition vs [125I]-238D2, at 0.5 µM: no displacement
[6] = biological target: human CXCR4 (human); experiment: competition vs [125I]-238D4 (3 nM), membranes of HEK293T cells expressing CXCR4; Table B-3 competition vs [125I]-238D4, at 0.5 µM: no displacement
[7] = biological target: human CXCR4 (human); experiment: competition vs [125I]-CXCL12 (40 pM), membranes of HEK293T cells expressing CXCR4; Table B-3 competition vs [125I]-CXCL12, up to 0.5 µM; bound only
[8] = biological target: human CXCR4 (human); experiment: periplasmic fraction (1:10), displacement of [125I]-CXCL12, HEK293T-CXCR4 membranes; - = 0-29%, + = 30-69%, ++ = 70-100%; screening of clones (Table B-2): 30-69% displacement of [125I]-CXCL12, HEK293T-CXCR4 membranes
[9] = biological target: human CXCR4 (human); experiment: competition vs [125I]-CXCL12; potency relative to monovalent 238D4
[10] = biological target: human CXCR4 (human); experiment: competition with [125I]-CXCL12 on HEK293T-CXCR4 membranes
[11] = biological target: human CXCR4 (human)
[12] = biological target: CCR5 (UniProt P51681); experiment: cell-based or functional assay
Sequence of CCR5 (P51681 whole entry): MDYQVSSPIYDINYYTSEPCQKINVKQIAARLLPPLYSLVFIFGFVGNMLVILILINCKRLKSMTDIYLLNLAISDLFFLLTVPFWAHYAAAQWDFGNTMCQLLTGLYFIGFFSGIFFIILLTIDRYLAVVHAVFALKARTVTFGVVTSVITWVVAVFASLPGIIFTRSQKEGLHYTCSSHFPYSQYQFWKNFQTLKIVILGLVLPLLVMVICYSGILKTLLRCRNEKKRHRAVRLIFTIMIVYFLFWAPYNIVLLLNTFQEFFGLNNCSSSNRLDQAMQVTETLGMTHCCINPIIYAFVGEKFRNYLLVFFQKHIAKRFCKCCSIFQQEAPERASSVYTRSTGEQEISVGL

[13] = biological target: human CXCR4 (human); experiment: cell-based or functional assay

B1: 238D2-10GS-238D2 (VHH)
chain: EVQLVESGGGLVQTGGSLRLSCAASGFTFSSYAMSWVRQAPGKGLEWVSGIKSSGDSTRYAGSVKGRFTISRDNAKNMLYLQMYSLKPEDTAVYYCAKSRVSRTGLYTYDNRGQGTQVTVSSGGGGSGGGGSEVQLVESGGGLVQTGGSLRLSCAASGFTFSSYAMSWVRQAPGKGLEWVSGIKSSGDSTRYAGSVKGRFTISRDNAKNMLYLQMYSLKPEDTAVYYCAKSRVSRTGLYTYDNRGQGTQVTVSS
Rel. potency [1]: 14 fold | Displacem. (%) [2]: 95% | pKi [2]: 9.16

B2: Nanobody 237D1 (VHH)
VHH: EVQLVESGGGLAQPGGPLRLTCEASGVIYSVNDMGWYRQAPGKQRELVAVITSGGGTNYVDSVKGRFTISGDNRKKTVYLQMNSLKPEDTAVYYCSIYYSSGISTLRSWGQGTQVTVSS
pKi [3]: < 6.3 | pKi [4]: < 6.3 | Displacem. (%) [5]: 0% | Displacem. (%) [6]: 0% | pKi [7]: < 6.3 | percent inhibition of specific [125I]-CXCL12 binding [8]: 30 to 69%

B3: 238D4-20GS-238D4 (VHH)
chain: EVQLMESGGGLVQAGGSLRLSCAASGRTFNNYAMGWFRRAPGKEREFVAAITRSGVRSGVSAIYGDSVKDRFTISRDNAKNTLYLQMNSLKPEDTAVYTCAASAIGSGALRRFEYDYSGQGTQVTVSSGGGGSGGGGSGGGGSGGGGSEVQLMESGGGLVQAGGSLRLSCAASGRTFNNYAMGWFRRAPGKEREFVAAITRSGVRSGVSAIYGDSVKDRFTISRDNAKNTLYLQMNSLKPEDTAVYTCAASAIGSGALRRFEYDYSGQGTQVTVSS
Rel. potency [9]: 4.4 fold | IC50 (read off the curve) [10]: 2 nM | Displacem. (%) [2]: 96% | pKi [2]: 8.85

B4: 238D2-15GS-238D4 (VHH)
chain: EVQLVESGGGLVQTGGSLRLSCAASGFTFSSYAMSWVRQAPGKGLEWVSGIKSSGDSTRYAGSVKGRFTISRDNAKNMLYLQMYSLKPEDTAVYYCAKSRVSRTGLYTYDNRGQGTQVTVSSGGGGSGGGGSGGGGSEVQLMESGGGLVQAGGSLRLSCAASGRTFNNYAMGWFRRAPGKEREFVAAITRSGVRSGVSAIYGDSVKDRFTISRDNAKNTLYLQMNSLKPEDTAVYTCAASAIGSGALRRFEYDYSGQGTQVTVSS
IC50 (read off the curve), migration of Jurkat cells towards 0.3 nM CXCL12 [11]: 300 pM | Anti-HIV-1 activity (in nM), PBMC/BaL [12]: > 100 nM | Anti-HIV-1 activity (in nM), U87.CD4.CCR5/BaL [12]: > 100 nM | IC50, HIV-1 BaL, PBMC donor 1 [12]: > 1000 ng/mL | IC50, HIV-1 BaL, PBMC donor 2 [12]: > 1000 ng/mL | IC90, HIV-1 BaL, PBMC donor 1 [12]: > 1000 ng/mL | IC90, HIV-1 BaL, PBMC donor 2 [12]: > 1000 ng/mL | nM IC50, HIV-1 BAL, PBMC donor 1 [12]: > 67 nM | nM IC50, HIV-1 BAL, PBMC donor 2 [12]: > 67 nM | Anti-HIV-1 activity (in nM), MT-4/HE [13]: 0.16 nM | Anti-HIV-1 activity (in nM), MT-4/NL4.3 [13]: 0.25 nM | Anti-HIV-1 activity (in nM), PBMC/HE [13]: 1.5 nM | Anti-HIV-1 activity (in nM), PBMC/NL4.3 [13]: 0.5 nM | Anti-HIV-1 activity (in nM), U87.CD4.CXCR4/NL4.3 [13]: 0.36 nM | Chemotaxis, Jurkat/0.3 nM CXCL12, Imax (%) [13]: 107% | Chemotaxis, Jurkat/0.3 nM CXCL12, pKi or pIC50 [13]: 9.86 | IC50, HIV-1 NL4.3, MT-4 cells, exp. 1 [13]: 16.6 ng/mL | IC50, HIV-1 NL4.3, PBMC donor 1 [13]: 10 ng/mL | IC50, HIV-1 NL4.3, PBMC donor 2 [13]: 17.9 ng/mL | IC50, HIV-1 UG270, PBMC donor 1 [13]: 21.2 ng/mL | IC50, HIV-1 UG270, PBMC donor 2 [13]: 89.4 ng/mL | IC90, HIV-1 NL4.3, MT-4 cells, exp. 1 [13]: 71.1 ng/mL | IC90, HIV-1 NL4.3, PBMC donor 1 [13]: 110 ng/mL | IC90, HIV-1 NL4.3, PBMC donor 2 [13]: 34.1 ng/mL | IC90, HIV-1 UG270, PBMC donor 1 [13]: 78.9 ng/mL | IC90, HIV-1 UG270, PBMC donor 2 [13]: 170 ng/mL | nM IC50, HIV-1 NL4.3, PBMC donor 1 [13]: 0.33 nM | nM IC50, HIV-1 NL4.3, PBMC donor 2 [13]: 0.6 nM | nM IC50, HIV-1 UG270, PBMC donor 1 [13]: 0.71 nM | nM IC50, HIV-1 UG270, PBMC donor 2 [13]: 2.98 nM | Rel. potency [1]: 28 fold | Rel. potency [9]: 17 fold | IC50 (read off the curve) [10]: 0.5 nM | Displacem. (%) [2]: 92% | pKi [2]: 9.45
